For three substances, Kd and stoichiometry N results are on record in article PMC10588359.

For assay [1], the target named is dansyl-labeled calmodulin (DANS-CaM), Ca2+-bound (rat) (UniProt P0DP29). Put plainly: fluorescence polarisation; 2 μM DANS-CaM titrated with CaMKK (30 μM and binary dilution series), 1 h incubation; 10 mM HEPES-NaOH pH 7.4, 150 mM NaCl, 1 mM CaCl2, 0.1% Tween 20, 0.1% BSA; one-site-binding model. Background: In fluorescence polarisation assays a small probe gives low polarisation when free and higher when bound to something large.

For assay [2] the target is unchanged. Kind of assay: fluorescence polarisation; as a1 but with 60 μM 14-3-3γ present: 2 μM DANS-CaM titrated with CaMKK (30 μM and binary dilution series), 1 h incubation; 10 mM HEPES-NaOH pH 7.4, 150 mM NaCl, 1 mM CaCl2, 0.1% Tween 20, 0.1% BSA; one-site-binding model.
Assay [3] concerns the target CaMKK1_(67–480) D293A, unphosphorylated (human) (UniProt Q8N5S9). Put plainly: AUC; sedimentation velocity of CaMKKs alone at two concentrations (CaMKK1 at 10 μM); 50 mM Tris–HCl pH 7.5, 150 mM NaCl, 1 mM TCEP; 20°C, 42,000 rpm; monomer to dimer.

Broadly, the Kd is the constant that tells how readily two partners part at equilibrium. A lower Kd goes with higher affinity. In the case of “pCaMKK2: CaMKK2(93-517) D330A phosphorylated by PKA at four sites (from UniProt Q96RR4 93-517) (domain or fragment)”, the equilibrium dissociation constant (Kd) in assay [1] was 3550 nM; in assay [2], more than 10800 nM.
Broadly, the stoichiometry N is the number of molecules, sites or subunits per partner or assembly. For “CaMKK1_(67–480) D293A, unphosphorylated (from UniProt Q8N5S9 67-480) (domain or fragment)”, in assay [3], the stoichiometry N is 2.
Consider “CaMKK2(93-517) D330A, unphosphorylated (from UniProt Q96RR4 93-517) (domain or fragment)”, for which the results for the Kd in assay [1] and in assay [2] were 560 nM and 510 nM, respectively.
